FireProtDB (doi:10.1021/bi982078m)

Conditions: Aspergillus oryzae (strain ATCC 42149 / RIB 40), pH 3, 25 °C, Absorbance, glycine-HCl 0.05 M, reversible: yes, whole UniProt chain shown

B1: Guanyl-specific ribonuclease T1 wild type, P00651 (protein)
chain: MMYSKLLTLTTLLLPTALALPSLVERACDYTCGSNCYSSSDVSTAQAAGYQLHEDGETVGSNSYPHKYNNYEGFDFSVSSPYYEWPILSSGDVYSGGSPGADRVVFNENNQLAGVITHTGASGNNFVECT
- denaturant m value (GdnHCl, KCl 0.1-1.0 M): 2.83 kcal/mol/M
- denaturant midpoint (higher = more stable) (GdnHCl, KCl 0.1-1.0 M): 1.78 M
- unfolding free energy (GdnHCl, KCl 0.1-1.0 M): 5.03 kcal/mol
- denaturant m value (Urea, KCl 0.10 M): 1.98 kcal/mol/M
- denaturant midpoint (higher = more stable) (Urea, KCl 0.10 M): 2.05 M
- unfolding free energy (Urea, KCl 0.10 M): 4.07 kcal/mol
- denaturant m value (Urea, KCl 0.50 M): 1.71 kcal/mol/M
- denaturant midpoint (higher = more stable) (Urea, KCl 0.50 M): 2.4 M
- unfolding free energy (Urea, KCl 0.50 M): 4.1 kcal/mol
- denaturant m value (Urea, KCl 1.00 M): 1.59 kcal/mol/M
- denaturant midpoint (higher = more stable) (Urea, KCl 1.00 M): 2.82 M
- unfolding free energy (Urea, KCl 1.00 M): 4.49 kcal/mol
- denaturant m value (Urea, KCl 1.25 M): 1.65 kcal/mol/M
- denaturant midpoint (higher = more stable) (Urea, KCl 1.25 M): 3.02 M
- unfolding free energy (Urea, KCl 1.25 M): 4.99 kcal/mol
- denaturant m value (Urea, KCl 1.50 M): 1.54 kcal/mol/M
- denaturant midpoint (higher = more stable) (Urea, KCl 1.50 M): 3.41 M
- unfolding free energy (Urea, KCl 1.50 M): 5.26 kcal/mol
